Where two headings read alike, the source gives them in different places.
Tests used:
[1] = in mice; cited from earlier work
[2] = system: ASPC-1/PSC xenografts; test: PSC/ASPC-1 subcutaneous xenograft in athymic nude mice; format: in vivo; conditions: TLY012 IV 10 mg/kg every other day and/or sorafenib 20 mg/kg oral everyday for 2 weeks
Description: Six-week-old athymic nude mice were anesthetized for all procedures 5×10^6ASPC-1 cells (human pancreas adenocarcinoma ascites metastasis cell line derived from nude mouse xenografts initiated with cells from the ascites of a patient with cancer of the pancreas) were mixed with 5×10^4 PSC cells and injected in a subcutaneous in athymic nude mice. Before injection, the cells were trypsinized, counted, washed twice in 1×PBS and resuspended in 100 μl of Matrigel® matrix (Corning), and injected between the scapulae. Two weeks after the tumor transplantation, mice were injected with TLY012 via intravenous (IV) injection (10 mg/kg, every other day) for 2 weeks, while control mice received PBS. Western blot was performed on tissue extracts with antibodies against GAPDH (Santa Cruz 5 Biotechnology, sc-1694), α-SMA (Sigma, A2547), GRP78 (Santa Cruz Biotechnology, sc-13968), DR4 (Abcam, Cambridge, Mass., #13890), DR5 (Abcam, #47179), PDGF-Rb (Santa Cruz Biotechnology, sc-432), and Cl.PARP-1 (Cell Signaling Technology, #5625).
Comparative quantitative RT-PCR (qPCR) was performed in the tumor sample for fibrogenic markers. qPCR was performed in triplicate for each sample using fast SYBR Green Master Mix (Thermo Fisher Scientific) and StepOnePlus Real-Time PCR System (Thermo Fisher Scientific). The expression levels of target genes were normalized to the expression of 18s and calculated based on the comparative cycle threshold Ct method (2^−ΔΔCt).
Collagen deposition was detected with Masson's Trichrome staining and microscopy.
Mouse xenografts were generated as in Example 8. Two weeks after the tumor transplantation, mice were injected with TLY012 via intravenous (IV) injection (10 mg/kg, every other day) and/or sorafenib (20 mg/kg, oral everyday) for 2 weeks. The mice were euthanized when the tumor volume reached 1500 mm^3 and images of the excised xenografts recorded and tumor weight measured.

[3] = in rodents; cited from earlier work
[4] = in apes; cited from earlier work

2K-PEG-TRAIL: 2K PEG derivatized TRAIL reported by Kim et al. 2011a
circulating half-life [1]: 3.9 h

20K-PEG-TRAIL: 20K PEG derivatized TRAIL reported by Kim et al. 2011a
circulating half-life [1]: 12.3 h

30K-PEG-TRAIL: 30K PEG derivatized TRAIL reported by Kim et al. 2011a
circulating half-life [1]: 17.7 h

CNC(=O)c1cc(Oc2ccc(NC(=O)Nc3ccc(Cl)c(C(F)(F)F)c3)cc2)ccn1 [Sorafenib, reference compound]
tumor weight, Mean [2]: 967 mg

TRAIL: Tumor necrosis factor-related apoptosis-inducing ligand, unmodified, literature values
half-life [3]: several minutes | half-life [4]: about 30 minutes | circulating half-life [1]: 1.1 h

10K-PEG-TRAIL: 10K PEG derivatized TRAIL reported by Kim et al. 2011a
circulating half-life [1]: 6.2 h

5K-PEG-TRAIL: 5K PEG derivatized TRAIL reported by Kim et al. 2011a
circulating half-life [1]: 5.3 h

Source: patent US11767353B2, “Trail compositions with reduced immunogenicity” (Theraly Fibrosis, Inc., priority 2020, dated 2023)
